Laboratory results from patent publication US9573983B2, “Compositions including I-domain antigen conjugate compounds and methods for treatment of autoimmune disorders” (University of Kansas, priority 2012, dated 2017).
Values joined by “and” are separate entries in the source; they are usually repeats but may differ in a detail not shown here. Equal values may be shown once.

What was measured:
[1] = tested on: EAE mouse model; assay: Suppression of EAE, prophylactic and vaccine-like treatment (Example 2); format: in vivo, SJL/J female mice; conditions: for change in body weight: p<0.005, days 12-24
Experimental: Six-to-eight week old SJL/J female mice were immunized subcutaneously with 200 μg PLP139-151 peptide in a 0.2 ml emulsion consisting of equal volumes of PBS and complete Freund's adjuvant (CFA) containing killed mycobacterium tuberculosis strain H37RA at a final concentration of 4 mg/ml (Difco, Detroit, Mich.). The PLP/CFA emulsion was administered to regions above the shoulder and the flanks (total of 4 sites, 50 μl at each injection site). In addition, 200 ng of pertussis toxin was injected intraperitoneally on the day of immunization (day 0) and 2 days post-immunization.
The mice then received either intravenous or subcutaneous injections of IDAC (10 or 26 nmol/injection) or peptides (100 nmol/injection for Ac-PLP-BPI-NH2-2 or 50 nmol/injection/mouse for Ac-PLP-cIBR1-NH2). The prophylactic disease suppression was carried out with subcutaneous or intravenous injections of IDAC molecules on days 4 and 7, or BPI molecules on days 4, 7, and 10. Mice receiving vaccine-like treatment were given subcutaneous injections of IDAC and BPI molecules at 11, 8, and 5 days prior to the induction of disease. As negative controls, mice were treated with PBS, 1-domain, and GMB-I-domain. Disease progression was evaluated by monitoring the change in weight of the mice and clinical scoring based on the severity of nerve damage ranging from 0 to 5: 0—no clinical symptoms of disease; 1—tail weakness or limp tail; 2—paraparesis (weakness or partial paralysis of one or two hind limbs); 3—paraplegia (complete paralysis of two hind limbs); 4—paraplegia with forelimb weakness or paralysis; 5—moribund (at this point, the affected mice were euthanized).
(§1) Statistical differences among the groups in clinical disease scores were determined by calculating the average score for each mouse from day 12 to day 17 by one-way analysis of variance followed by Fisher's least significant difference. Statistical differences in body weight among groups were also analyzed in the same fashion, but from day 12 to day 24. Comparison of cytokine concentrations was also performed by one-way analysis of variance. All analyses were performed using StatView (SAS Institute, Cary, N.C.).

[2] = tested on: splenocytes; assay: Cytokine levels in vitro from splenocytes of treated EAE mice (Q-Plex ELISA); format: cell-based, female SJL/J (H-2^s) mice; conditions: IDAC-3 26 nmol/injection s.c. days 4 and 7
Experimental: Representative spleens for each group (IDAC-3 or PBS) from Study 2 were harvested from female SJL/J (H-2^s) mice on days 13 and 35. Splenocytes were dispersed by gently smashing the spleen using the coarse portion of a 1 ml syringe in a petri dish containing RPMI 1640 medium (10% FBS, […]). The cells were then filtered through a 40 micrometer strainer. After centrifugation, the red blood cells were lysed using “ACK lysis buffer,” and the remaining white blood cells were washed three times with medium. Splenocytes (5×10^6 cells/ml) were cultured in parallel in the presence of 20 μM PLP and blank RPMI medium. Supernatants were collected at a 72 h time-point for the measurement of cytokine levels. The samples were then analyzed using a fully quantitative ELISA-based Q-Plex™ Mouse Cytokine-Screen (Quansys Biosciences, Logan, Utah).
as §1

[3] = 3 injections, vaccine-like s.c.
[4] = s.c. 26 nmol/injection days 4 and 7, vs PBS
[5] = vaccine-like s.c. 10 nmol on days -11, -8, -5

B1: I-domain: LFA-1 I-domain protein, SEQ ID NO: 1; negative control and carrier protein (protein, listed as Homo sapiens)
chain: MGNVDLVFLFDGSMSLQPDEFQKILDFMKDVMKKLSNTSYQFAAVQFSTSYKTEFDFSDYVKRKDPDALLKHVKHMLLLTNTFGAINYVATEVFREELGARPDATKVLIIITDGEATDSGNIDAAKDIIRYIIGIGKHFQTKESQETLHKFASKPASEFVKILDTFEKLKDLFTELQKKIY
suppression of progress of EAE (clinical score, change in body weight, incidence of disease) ([1]; two i.v. injections, 26 nmol/injection, days 4 and 7, vs PBS): neither the I-domain nor GMB-I-domain significantly suppressed the progress of EAE | onset of disease ([1]; two i.v. injections, 26 nmol/injection, days 4 and 7, vs PBS, I-domain controls): slight delay in the onset of the disease

B2: (Ac-HSLGKWLGHPDKFC-NH2)n-linker-I-domain (conjugate, listed as Homo sapiens)
chain 1: HSLGKWLGHPDKFC
chain 2: MGNVDLVFLFDGSMSLQPDEFQKILDFMKDVMKKLSNTSYQFAAVQFSTSYKTEFDFSDYVKRKDPDALLKHVKHMLLLTNTFGAINYVATEVFREELGARPDATKVLIIITDGEATDSGNIDAAKDIIRYIIGIGKHFQTKESQETLHKFASKPASEFVKILDTFEKLKDLFTELQKKIY
modifications: Ac, NH2 caps; maleimide linker; Chemically synthesized signal 1 moiety peptide with amino acids 139-151 of PLP protein modified with a terminal cysteine
notes: Ac-PLP-Cys-NH2 (capped) peptides conjugated via maleimide linkers to lysine residues of I-domain
IL-5 level compared to PBS-treated group ([2]; day 13): no significant difference | IL-10 level ([2]; day 13): could not be detected | IL-2 level, PBS-treated vs IDAC-3-treated group ([2]; day 13, p<0.05): IL-2 cytokine levels were higher than in the IDAC-3-treated group | IL-2 level, PBS-treated vs IDAC-3-treated group ([2]; day 35): no significant difference | IL-17 level compared to PBS-treated group ([2]; day 35, p<0.0001): fourfold lower | IL-5 level compared to PBS-treated group ([2]; day 35, p<0.0005): significantly higher | IL-12 level compared to PBS-treated group ([2]; day 35, p<0.005): significantly lower | IL-10 level compared to PBS group ([2]; day 35, p<0.05): significantly higher levels | maximum toxic concentration (estimated therapeutic window) [1, 3]: 26 nmol | minimum effective concentration (estimated therapeutic window) [1, 3]: 10 nmol | clinical scores, IDAC-3 compared with IDAC-1 ([1]; i.v. 26 nmol/injection days 4 and 7, p<0.005, days 12-17): better than IDAC-1 in suppressing EAE | disease incidence ([1]; i.v. 26 nmol/injection days 4 and 7, vs PBS): delays in disease incidence | onset of disease (clinical scores) ([1]; i.v. 26 nmol/injection days 4 and 7, vs PBS, IDAC molecules): delayed the onset of disease | clinical scores (suppression of EAE) ([1]; i.v. 26 nmol/injection days 4 and 7, vs PBS, p<0.0005, days 12-17): significantly better at suppressing EAE than PBS | body weight change ([1]; i.v. 26 nmol/injection days 4 and 7, vs PBS, p<0.05, days 12-24): significantly more effective than PBS in suppressing disease | disease incidence [1, 4]: significantly more efficacious than PBS in suppressing EAE | clinical scores (suppression of EAE) ([1]; s.c. 26 nmol/injection days 4 and 7, vs PBS, p<0.005, days 12-17): significantly more efficacious than PBS in suppressing EAE | change in body weight [1, 4]: significantly more efficacious than PBS in suppressing EAE | anaphylaxis [1, 5]: did not result in anaphylaxis | efficacy of low dose compared with 26 nmol dose [1, 5]: not as effective as the 26 nmol dose | efficacy of high dose compared with other groups ([1]; vaccine-like s.c. 26 nmol/injection days -11, -8, -5, four animals, no statistical analysis): seemed to be better than the lower dose (10 nmol/injection) group and similar to the Ac-PLP-BPI-NH2-2-treated group | toxic effect / adverse events (mice affected) ([1]; vaccine-like s.c. 26 nmol/injection, third injection (day -5)): two of six mice and 2 of the 6 mice | potency compared with Ac-PLP-BPI-NH2-2 ([1]; vaccine-like s.c. days -11, -8, -5, IDAC-3 10 nmol/injection vs Ac-PLP-BPI-NH2-2 100 nmol/injection): less potent than Ac-PLP-BPI-NH2-2 | clinical scores (suppression of EAE) ([1]; vaccine-like s.c. days -11, -8, -5, IDAC-3 10 nmol/injection, Ac-PLP-BPI-NH2-2 100 nmol/injection, vs PBS, p<0.005, days 12-17): significantly better clinical scores | change in body weight ([1]; vaccine-like s.c. days -11, -8, -5, IDAC-3 10 nmol/injection, Ac-PLP-BPI-NH2-2 100 nmol/injection, vs PBS): significantly better | onset of disease (incidence of disease) ([1]; vaccine-like s.c., IDAC-3 26 nmol/injection days -11, -8, Ac-PLP-BPI-NH2-2 100 nmol/injection days -11, -8, -5): Delay in the onset of disease | relapse of disease (long-term effect) ([1]; vaccine-like s.c., IDAC-3 26 nmol/injection days -11, -8, Ac-PLP-BPI-NH2-2 100 nmol/injection days -11, -8, -5, days 45-55): long-term effect in suppressing relapse of the disease | clinical scores (suppression of EAE) ([1]; vaccine-like s.c., IDAC-3 26 nmol/injection days -11, -8, vs PBS, p<0.0001, days 12-17 and 45-55): suppressed EAE significantly better than PBS | change of body weight ([1]; vaccine-like s.c., IDAC-3 26 nmol/injection days -11, -8, vs PBS, p<0.0001, days 12-24): suppressed EAE significantly better than PBS
